Assay results reported in the supplement of paper PMC10567573.

B1: KCNA4 (parent)
chain: YQSGGRLKRPVNVPFDIFTEEVKF
B2: EMID1 (parent)
chain: FTETNNHWPQGPTGPPGPPGPMGP
B3: OAS1 (parent)
chain: LQLGEGVEFDVLPAFDALGQLTGG

Variants of: B1
Assay: protein stability index of a GFP-peptide fusion (GPS, HEK-293T) (PSI 1-6); higher = more stable
Conditions: c terminus: a fixed tail appended
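Further: lentivirally expressed fusions sorted by FACS into six bins by GFP to DsRed ratio, PSI derived from sequencing read proportions per bin multiplied by bin number.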

Variant | protein stability index
E21F | 1.55
E21S | 1.24
E21M | 1.06
E21C | 1.7
E21A | 1.89
E21T | 1.81
E21P | 2.13
E21Y | 2.61
Q2L | 1.64
Q2R | 2.22
Q2D | 2.97
Q2Y | 1.55
Q2W | 1.48
Q2E | 2.73
Q2F | 2.19
F18M | 2.02
F18R | 1.93
F18E | 1.81
F18I | 1.97
F18D | 2.01
F18V | 1.67
F18Q | 2.65
F18S | 2.43
F18A | 2.28

Variant | protein stability index
F18P | 2.44
S3V | 1.75
S3C | 1.69
S3A | 1.7
S3E | 2.57
S3W | 2.23
S3G | 2.05
S3N | 1.98
S3I | 1.63
S3T | 2.32
T19N | 2.33
T19Q | 1.42
T19H | 2.83
T19R | 1.2
T19E | 1.92
G5K | 2.14
G5S | 1.81
G5Q | 2.08
G5T | 2.7
G5N | 1.94
G5W | 1.59
G5V | 1.63
G5D | 2.11
G5A | 2.32

Variant | protein stability index
G5C | 1.73
G5E | 2.29
R6T | 2.5
R6Y | 2.51
R6H | 2.14
R6P | 1.85
R6A | 2.19
R6G | 1.71
R6E | 1.63
R6C | 1.26
R6D | 2.23
R6N | 2.16
V11G | 1.31
V11T | 2.15
V11N | 2.74
V11E | 1.65
V11M | 2.32
V11A | 2.07
V11H | 1.69
V11D | 1.91
V11P | 1.82
V11R | 1.81
V11I | 2.3
P14T | 1.51

Variant | protein stability index
P14D | 2.28
P14K | 1.71
P14S | 1.9
P14H | 1.86
P14V | 1.56
P14Q | 3.33
P14L | 1.91
I17E | 2.15
I17M | 1.91
I17Q | 1.72
I17C | 3.62
I17P | 1.85
I17H | 1.98
I17G | 1.91
I17V | 1.28
K8I | 2.47
K8D | 2.28
K8W | 5.95
K8N | 2.23
K8R | 2.67
K8V | 1.53
K8E | 1.98
V13M | 1.61
V13I | 1.75

Variant | protein stability index
V13C | 2.18
V13L | 1.78
V13P | 1.53
V13A | 1.47
V13Y | 1.88
V13D | 1.55
V13R | 2.25
V13T | 1.51
V13Q | 1.66
V22Y | 2.25
V22T | 1.96
V22H | 1.86
V22D | 2.09
V22R | 1.48
V22K | 1.59
V22S | 2
V22A | 1.58
Y1I | 1.93
Y1L | 3.97
Y1G | 3.48
Y1E | 3.08
Y1H | 2.88
Y1M | 2.69
Y1R | 3.12

Variant | protein stability index
Y1N | 3.04
Y1A | 2.82
Y1S | 3
Y1D | 3.12
Y1F | 1.6
D16T | 1.29
D16H | 1.08
D16Y | 2.11
D16C | 1.1
R9K | 1.83
R9L | 2.11
R9N | 2.07
R9T | 1.7
R9Y | 2.38
R9A | 2.04
R9M | 1.46
R9Q | 2.34
R9E | 2.06
R9G | 2.31
F15T | 2.22
F15K | 2.1
F15G | 1.98
F15N | 1.88
F15W | 2.12

Variant | protein stability index
F15E | 2.75
F24C | 1.93
F24R | 2.59
F24A | 1.78
F24V | 2.49
F24E | 2.32
F24K | 2.49
F24P | 2.25
F24H | 2.16
F24M | 1.63
F24G | 2.26
F24N | 1.93
F24D | 2.11
E20S | 1.92
E20D | 2.57
E20G | 1.57
E20T | 1.53
E20I | 1.47
E20Q | 1.44
E20C | 2.11
E20P | 2.11
N12C | 1.8
N12T | 2.07
N12P | 1.55

Variant | protein stability index
N12V | 1.54
N12K | 3.14
N12A | 1.65
N12F | 2.5
N12I | 1.44
G4C | 1.74
G4N | 1.73
G4M | 2.08
G4A | 2.09
G4W | 2.56
G4H | 2.33
G4I | 2.36
G4K | 2.12
G4L | 2.77
P10I | 1.72
P10K | 1.4
P10H | 1.93
P10M | 1.4
P10Q | 2.2
P10T | 1.79
P10D | 1.38
P10V | 2.31
P10E | 1.78
P10R | 1.01

Variant | protein stability index
P10A | 2.16
K23C | 2.33
K23A | 1.35
K23F | 2.99
K23H | 1.71
K23Y | 1.52
K23M | 2.17
K23P | 1.44
K23V | 2.42
K23I | 2.65
L7Q | 1.68
L7E | 2.16
L7K | 2.15
L7C | 1.78
L7Y | 1.86
L7D | 1.95
L7R | 1.7
L7N | 1.84

Variants of: B2
Assay: as above
Conditions: c terminus: a fixed tail appended

Variant | protein stability index
P15K | 2.27
P15I | 2.24
P15G | 2.44
P15H | 2.62
P15R | 1.69
P15Y | 2.58
P15L | 2.34
P15E | 2.66
P15N | 2.25
P15Q | 2.21
P15D | 2.15
P15S | 2.88
P15M | 2.02
P15V | 1.93
P15W | 1.75
P15C | 2.68
P15F | 2.11
P19N | 1.8
P19G | 2.79
P19L | 2.41
P19I | 2.72

Variant | protein stability index
P19Y | 1.36
P19M | 1.93
P19S | 2
P19K | 1.94
P19E | 2.19
P19V | 1.89
P19F | 1.79
P19D | 2.68
P16C | 2.5
P16D | 2.56
P16V | 3.19
P16Y | 2.07
P16G | 2.4
P16L | 2.14
P16F | 2.02
P16M | 2.47
P16E | 2.54
P16I | 2.33
P16A | 2.65
P16T | 2.58
P16S | 2.1

Variant | protein stability index
P16N | 2.23
P16K | 1.83
P16R | 2.52
P18R | 2.56
P18G | 1.82
P18F | 2
P18N | 1.47
P18S | 2.45
P18W | 2.55
P18D | 2.68
P18Q | 1.93
P18V | 2.37
P18M | 1.68
P18Y | 2.33
P18K | 2.51
P18L | 2.17
P18E | 2.11
P18I | 1.93
P18C | 1.53

Variants of: B3
Assay: as above
Conditions: c terminus: a fixed tail appended

Variant | protein stability index
T22E | 2.75
T22H | 2.06
T22C | 2.22
T22Q | 1.14
T22Y | 1.08
T22A | 3.87
T22V | 1.86
T22M | 1.07
T22D | 1.97
T22G | 2.05
T22P | 1.9
T22K | 2.04
T22S | 1.73
T22N | 1.49
T22F | 2.69
G24Q | 1.98
G24H | 3.16
G24Y | 2.55
G24K | 2.49
G24N | 1.5
G24W | 1.45

Variant | protein stability index
G24F | 1.17
G24E | 2.31
G24T | 1.48
G24P | 1.64
G24D | 1.94
G24S | 1.81
G24I | 3.05
G23E | 2.26
G23P | 2.03
G23A | 2.33
G23Q | 2.58
G23R | 2.68
G23V | 2.33
G23S | 1.74
G23H | 1.58
G23F | 1.51
G23D | 2.13
G23T | 1.67
G23M | 1.13
G23I | 1.19
G23K | 2.13

Variant | protein stability index
G23Y | 1.34
G23L | 1.4
G23C | 1.52
L21E | 2.5
L21K | 3.12
L21T | 1.89
L21V | 2.22
L21F | 2.53
L21C | 3.05
L21P | 2.9
L21H | 1.68
L21Y | 1.51
L21D | 3.43
L21N | 2.32
L21A | 2.22
L21G | 2.36
L21S | 2.06
L21Q | 3.62
L21I | 2.91
Q20Y | 2.09
Q20V | 2.01
